The supplement of paper PMC5998384

Experiments:
HeLa Kyoto [1] = assay: melting temperature (median over replicates), in situ; higher = more thermally stable
HeLa Kyoto [2] = assay: solubility in G1/S (NP-40 vs SDS abundance) (log2 ratio); higher = more soluble; conditions: cell cycle stage: G1/S
HeLa Kyoto [3] = assay: solubility change mitosis vs G1/S (difference of NP-40 vs SDS log2 ratios) (log2 ratio difference); higher = more soluble in mitosis
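Throughout, for melting temperature (median over replicates), in situ: HeLa Kyoto cells synchronized by double thymidine or nocodazole block, proteins quantified by TMT10plex mass spectrometry, three independent biological replicates.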
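Throughout, for solubility change mitosis vs G1/S (difference of NP-40 vs SDS log2 ratios): synchronized HeLa Kyoto cells (double thymidine block for G1/S, nocodazole release for mitosis), protein amounts in NP-40 versus SDS lysates quantified by mass spectrometry, three biological replicates.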
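Throughout, for solubility in G1/S (NP-40 vs SDS abundance): HeLa Kyoto cells arrested at G1/S by double thymidine block, proteins quantified by TMT10plex mass spectrometry in mild NP-40 versus SDS extracts, three biological replicates.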

Sequence | melting temperature (HeLa Kyoto [1]; cell cycle stage: G1/S) [°C] | melting temperature (HeLa Kyoto [1]; cell cycle stage: mitosis) [°C] | solubility in G1/S (log2) (HeLa Kyoto [2]) | solubility change mitosis (log2) (HeLa Kyoto [3])
MSRKQNQKDSSGFIFDLQSNTVLAQGGAFENMKEKINAVRAIVPNKSNNEIILVLQHFDNCVDKTVQAFMEGSASEVLKEWTVTGKKKNKKKKNKPKPAAEPSNGIPDSSKSVSIQEEQSAPSSEKGGMNGYHVNGAINDTESVDSLSEGLETLSIDARELEDPESAMLDTLDRTGSMLQNGVSDFETKSLTMHSIHNSQQPRNAAKSLSRPTTETQFSNMGMEDVPLATSKKLSSNIEKSVKDLQRCTVSLARYRVVVKEEMDASIKKMKQAFAELESCLMDREVALLAEMDKVKAEAMEILLSRQKKAELLKKMTHVAVQMSEQQLVELRADIKHFVSERKYDEDLGRVARFTCDVETLKKSIDSFGQVSHPKNSYSTRSRCSSVTSVSLSSPSDASAASSSTCASPPSLTSANKKNFAPGETPAAIANSSGQPYQPLREVLPGNRRGGQGYRPQGQKSNDPMNQGRHDSMGRYRNSSWYSSGSRYQSAPSQAPGNTIERGQTHSAGTNGTGVSMEPSPPTPSFKKGLPQRKPRTSQTEAVNS [SPATS2] | 52.2 | 51.5 | -1.01 | 0.928
MSTGFSFGSGTLGSTTVAAGGTSTGGVFSFGTGASSNPSVGLNFGNLGSTSTPATTSAPSSGFGTGLFGSKPATGFTLGGTNTGIATTITTGLTLGTPATTSAATTGFSLGFNKPAASATPFALPITSTSASGLTLSSALTSTPAASTGFTLNNLGGTTATTTTASTGLSLGGALAGLGGSLFQSTNTGTSGLGQNALGLTLGTTAATSTAGNEGLGGIDFSSSSDKKSDKTGTRPEDSKALKDENLPPVICQDVENLQKFVKEQKQVQEEISRMSSKAMLKVQEDIKALKQLLSLAANGIQRNTLNIDKLKIETAQELKNAEIALRTQKTPPGLQHEYAAPADYFRILVQQFEVQLQQYRQQIEELENHLATQANNSHITPQDLSMAMQKIYQTFVALAAQLQSIHENVKVLKEQYLGYRKMFLGDAVDVFETRRAEAKKWQNTPRVTTGPTPFSTMPNAAAVAMAATLTQQQQPATGPQPSLGVSFGTPFGSGIGTGLQSSGLGSSNLGGFGTSSGFGCSTTGASTFGFGTTNKPSGSLSAGFGSSSTSGFNFSNPGITASAGLTFGVSNPASAGFGTGGQLLQLKKPPAGNKRGKR [NUP58] | 54.1 | 52.7 | 0.542 | 0.234
MSTGPTAATGSNRRLQQTQNQVDEVVDIMRVNVDKVLERDQKLSELDDRADALQAGASQFETSAAKLKRKYWWKNCKMWAIGITVLVIFIIIIIVWVVSS [VAMP3] | – | 54.7 | 0.0764 | -0.16
MTDRYTIHSQLEHLQSKYIGTGHADTTKWEWLVNQHRDSYCSYMGHFDLLNYFAIAENESKARVRFNLMEKMLQPCGPPADKPEEN [SF3B5] | 52.7 | 51.1 | -0.73 | 0.221
MTELAGASSSCCHRPAGRGAMQSVLHHFQRLRGREGGSHFINTSSPRGEAKMSITSDEVNFLVYRYLQESGFSHSAFTFGIESHISQSNINGTLVPPAALISILQKGLQYVEAEISINEDGTVFDGRPIESLSLIDAVMPDVVQTRQQAFREKLAQQQASAAAAAAAATAAATAATTTSAGVSHQNPSKNREATVNGEENRAHSVNNHAKPMEIDGEVEIPSSKATVLRGHESEVFICAWNPVSDLLASGSGDSTARIWNLNENSNGGSTQLVLRHCIREGGHDVPSNKDVTSLDWNTNGTLLATGSYDGFARIWTEDGNLASTLGQHKGPIFALKWNRKGNYILSAGVDKTTIIWDAHTGEAKQQFPFHSAPALDVDWQNNTTFASCSTDMCIHVCRLGCDRPVKTFQGHTNEVNAIKWDPSGMLLASCSDDMTLKIWSMKQEVCIHDLQAHNKEIYTIKWSPTGPATSNPNSNIMLASASFDSTVRLWDIERGVCTHTLTKHQEPVYSVAFSPDGKYLASGSFDKCVHIWNTQSGNLVHSYRGTGGIFEVCWNARGDKVGASASDGSVCVLDLRK [TBL1X] | – | 52.5 | -0.043 | -0.0781
MTGGRFDFDDGGTYCGGWEEGKAHGHGICTGPKGQGEYSGSWSHGFEVVGGYTWPSGNTYQGYWAQGKRHGLGVETKGKWMYRGEWSHGFKGRYGVRQSLCTPARYEGTWSNGLQDGYGVETYGDGGTYQGQWAGGMRHGYGVRQSVPYGMATVIRSPLRTSLASLRSEQSNGSVLHDAAAAADSPAGTRGGFVLNFHADAELAGKKKGGLFRRGSLLGSMKLRKSESKSSISSKRSSVRSDAAMSRISSSDANSTISFGDVDCDFCPVEDHVDATTTETYMGEWKNDKRNGFGVSERSNGMKYEGEWANNKRHGYGCTVFPDGSKEEGKYKNNILVRGIRKQLIPIRHTKTREKVDRAIEGAQRAAAMARTKVEIANSRTAHARAKADAADQAALAARQECDIARAVARELSPDFYQPGPDYVKQRFQEGVDAKENPEEKVPEKPPTPKESPHFYRKGTTPPRSPEASPKHSHSPASSPKPLKKQNPSSGARLNQDKRSVADEQVTAIVNKPLMSKAPTKEAGAVVPQSKYSGRHHIPNPSNGELHSQYHGYYVKLNAPQHPPVDVEDGDGSSQSSSALVHKPSANKWSPSKSVTKPVAKESKAEPKAKKSELAIPKNPASNDSCPALEKEANSGPNSIMIVLVMLLNIGLAILFVHFLT [JPH1] | – | 51.7 | -0.419 | 0.108
